From patent US20250197505A1 (DREN BIO, published 2025) come the findings set out here.

Assay [1] concerns the target T1, human CD94 expressed on cells (human primary NK cells in PBMCs; HEK cells expressing human CD94) (human, UniProt Q13241 1-179).
T1 sequence (looked up): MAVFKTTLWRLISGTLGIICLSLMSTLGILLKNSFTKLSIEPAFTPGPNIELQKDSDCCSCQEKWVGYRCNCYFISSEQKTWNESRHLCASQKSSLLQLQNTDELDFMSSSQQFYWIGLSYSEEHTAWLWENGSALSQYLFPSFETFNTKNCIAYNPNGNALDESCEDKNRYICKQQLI
Description: cell-based or functional assay.

The target of assay [2] is T2, cynomolgus CD94 expressed on HEK293 cells (cynomolgus monkey, UniProt Q68VD4 1-179).
T2 construct: also called cyno-CD94; cynomolgus monkey CD94
T2 sequence: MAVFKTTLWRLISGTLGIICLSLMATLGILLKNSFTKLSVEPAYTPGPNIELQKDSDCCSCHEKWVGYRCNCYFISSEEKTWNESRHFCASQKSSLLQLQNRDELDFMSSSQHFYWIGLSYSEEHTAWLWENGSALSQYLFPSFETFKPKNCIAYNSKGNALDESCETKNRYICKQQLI
The assay is described as follows: flow cytometry, cynomolgus CD94-expressing HEK293 cells. An excerpt: Anti-CD94 hybridoma supernatants were screened on cynomolgus CD94-expressing HEK293 cells by flow cytometry for cross-reactivity to cynomolgus CD94. HP-3D9 is a commercial anti-CD94 antibody that was used as a negative control. Mouse IgG1, IgG2a, IgG2b and IgG3 were used as negative controls. […] Commercially available anti-CD94 antibodies were used to test cynomolgus cross-reactivity. 18H3 was used as a positive control. The MFI of each antibody was normalized to the MFI of its respective isotype.
Cynomolgus CD94-expressing HEK293 cells were seeded in 96-well plates at a density of 100,000 cells per well, incubated with cell viability dye (Thermo Fisher) for 30 minutes on ice and protected from light. The cells were washed once with FACS buffer (PBS with 2% IgG low FBS). Hybridoma supernatants, anti-CD94 antibodies and isotype controls were incubated with cells for 30 minutes on ice and protected from light. […] After incubation, the cells received a final wash in FACS buffer before quantification on the Cytoflex (Beckman Coulter). All data acquisition and fluorescence compensation were performed using CytoFlex (Beckman Coulter, Atlanta, GA). […] CD94 expression was then quantified on this population. […]
On the technique in general: Flow cytometry measures light scatter and fluorescence of single cells or particles in a stream.

For assay [3], the target named is T1, human CD94 expressed on cells (human …). The assay is described as follows: flow cytometry titration (100 nM to 0.046 nM) on primary NK cells in healthy donor PBMCs; human primary NK cells, flow cytometry titration. As for the experimental part: Peripheral blood monocuclear cells (PBMCs) of healthy donor HD-40 were used for antibody staining. 18H3 antibody was titrated from 100 nM to 0.046 nM in 1:3 dilutions and incubated with PBMCs. CD3 and CD56 antibodies were used to identify NK cells on the flow scatter. 18H3 antibody binding on […] and CD56 bright NK cells was used to assess affinity of 18H3. Titration curves and EC50 were generated using Graphpad Prism. […] Human IgG1 isotype control with secondary antibody (hIgG1) and goat (Fab)2 fragment anti-human Fcy-specific secondary antibody AF647 only (2ndary Ab) were used as controls.
Healthy donor PBMCs were seeded in 96 well plates at a density of 100,000 cells per well, incubated with human Fc block (Biolegend) and cell viability dye (Thermo Fisher) for 30 minutes on ice and protected from light. […] After incubation, the cells received a final wash in FACS buffer before quantification on the Cytoflex (Beckman Coulter). All data acquisition and fluorescence compensation were performed using CytoFlex (Beckman Coulter, Atlanta, GA). […] CD94 expression was then quantified on the CD3−CD56+NK cell population. […]
The affinity of the antibody clones was also assessed by flow cytometry analysis.

Assay [4] has the same target. The assay is described as follows: competition assay, flow cytometry on CD3-CD56+ NK cells in healthy donor PBMCs; AF647-labelled 18H3 titrated in the presence of Mouse IgG1 control (no competitor). How it is done: FIGS. 5A-5B show the results of competition assays performed for 18H3 anti-CD94 antibody evaluation. For all competition assays, 18H3 was incubated with PBMCs at a concentration of […]. […] Commercially available anti-CD94 antibodies were titrated and incubated with PBMCs concurrently with 18H3. […] To test competition between 18H3 and 1M4/1E4, 1M4 and 1E4 were incubated with cells at concentrations of 8.5 µg/ml and […], respectively. 18H3 was fluorescently tagged with AF647 and incubated with cells concurrently with […].
Healthy donor PBMCs were seeded in 96-well plates at a density of 100,000 cells per well, incubated with human Fc block (Biolegend) and cell viability dye (Thermo Fisher) for 30 minutes on ice and protected from light. The cells were washed once with FACS buffer (PBS with 2% IgG low FBS). Unconjugated anti-CD94 antibodies at EC80 concentrations, CD3 FITC and CD56 PE antibodies, and APC-labeled anti-CD94 antibodies were incubated with cells for 30 minutes on ice and protected from light. The cells then received a final wash in FACS buffer before quantification on the Cytoflex (Beckman Coulter). All data acquisition and fluorescence compensation were performed using CytoFlex (Beckman Coulter, Atlanta, GA). Data analysis was performed using FlowJo software. […] Anti-CD94 APC was then quantified on the CD3−CD56+NK cell population. […]

B1: anti-CD94 antibody clone 18H3 (antibody, V domains shown)
VH: EVQLVQSGAEVKKPGESLKISCKGSGYRFTSYWIGWVRQMPGKGLEWMGIIYPGDSDTRYSPSFQGQVIISADKSITTAFLQWSSLKASDTAMYYCARPFDYGGSPGYFDYWGQGTLVTVSS
VL: DIQMTQSPSTLSASVGDRVTITCRASQSIRSWLAWYQQKPGKAPKLLIYKASSLESGVPSRFSGSGSGTEFTLTISSLQPDDFATYYCQQYNTFWTFGQGTKVEIK
notes: also called 18H3-AF647
As a reminder, the EC50 is the concentration needed to bring the measured effect to its halfway point. What is called EC50 (read off the curve) is the concentration needed to bring the measured effect to its halfway point. B1: in assay [1], the “percent decrease in MFI (antibody internalization assay), comparing 0.5 hours to 24 hours at 37° C.” value amounted to 24%. Besides, the binding result in assay [2] was “binds”. This molecule showed an EC50 in assay [3] of 2.6 nM. For the same molecule, the concentration for a half-maximal effect (EC50 (read off the curve)) in assay [4] was about 1 nM.
